Like-named read-outs stand apart in the source and are kept apart here.
Legend:
[1] = molecular target: T1, stabilized soluble SARS-CoV-2 S ectodomain trimer in the pre-fusion conformation (SARS-CoV-2; bacteriophage T4, UniProt P0DTC2 14-1208; P10104 458-484)
T1 construct: also called soluble S trimer; S trimer

[2] = molecular target: T1, stabilized soluble SARS-CoV-2 S …; remark: listed apart in the source

B1: ACE2615-foldon-K353Y (receptor)
chain: QSTIEEQAKTFLDKFNHEAEDLFYQSSLASWNYNTNITEENVQNMNNAGDKWSAFLKEQSTLAQMYPLQEIQNLTVKLQLQALQQNGSSVLSEDKSKRLNTILNTMSTIYSTGKVCNPDNPQECLLLEPGLNEIMANSLDYNERLWAWESWRSEVGKQLRPLYEEYVVLKNEMARANHYEDYGDYWRGDYEVNGVDGYDYSRGQLIEDVEHTFEEIKPLYEHLHAYVRAKLMNAYPSYISPIGCLPAHLLGDMWGRFWTNLYSLTVPFGQKPNIDVTDAMVDQAWDAQRIFKEAEKFFVSVGLPNMTQGFWENSMLTDPGNVQKAVCHPTAWDLGYGDFRILMCTKVTMDDFLTAHHEMGHIQYDMAYAAQPFLLRNGANEGFHEAVGEIMSLSAATPKHLKSIGLLSPDFQEDNETEINFLLKQALTIVGTLPFTYMLEKWRWMVFKGEIPKDQWMKKWWEMKREIVGVVEPVPHDETYCDPASLFHVSNDYSFIRYYTRTLYQFQFQEALCQAAKHEGPLHKCDISNSTEAGQKLFNMLRLGKSEPWTLALENVVGAKNMNVRPLLNYFEPLFTWLKDQNKNSFVGWSTDWSPYADSGGGGSGGYIPEAPRDGQAYVRKDGEWVLLSTFLGGSHHHHHH
notes: also called Sol-ACE2-Foldon-K353Y
**Q.** What does the source list for B1?
**A.** Kd [1]: 32.3 nM; Kd [2]: 32.3 nM; ka2 [2]: 0.397; kdis2 [2]: 0.00545; koff [2]: 0.00322 s⁻¹; kon [2]: 99600 M⁻¹ s⁻¹

Source: patent publication US20220002701A1 (CHILDREN S MEDICAL CENTER, published 2022)
